Measured values as given in paper PMC12697862.

Target: IP3R1 channel fragment E
Test: co-IP (IP: Flag, immunoblot for Myc) with band quantification
Settings: LV-GRP75-Flag(mutant) with IP3R1E-Myc; n = 5; means ± SEM; read off a plot

GRP75, transfected for co-IP (from UniProt P38647) K567R; K612R
response (relative level of Myc/Flag (IP group)): 1

GRP75, transfected for co-IP (from UniProt P38647) K567Q; K612Q
response (relative level of Myc/Flag (IP group)): 0.47
